To fix the notation:
B1: UDP-glucuronosyltransferase 1A9 (Homo sapiens), O60656-1 (parent)
chain: MACTGWTSPLPLCVCLLLTCGFAEAGKLLVVPMDGSHWFTMRSVVEKLILRGHEVVVVMPEVSWQLGRSLNCTVKTYSTSYTLEDLDREFKAFAHAQWKAQVRSIYSLLMGSYNDIFDLFFSNCRSLFKDKKLVEYLKESSFDAVFLDPFDNCGLIVAKYFSLPSVVFARGILCHYLEEGAQCPAPLSYVPRILLGFSDAMTFKERVRNHIMHLEEHLLCHRFFKNALEIASEILQTPVTEYDLYSHTSIWLLRTDFVLDYPKPVMPNMIFIGGINCHQGKPLPMEFEAYINASGEHGIVVFSLGSMVSEIPEKKAMAIADALGKIPQTVLWRYTGTRPSNLANNTILVKWLPQNDLLGHPMTRAFITHAGSHGVYESICNGVPMVMMPLFGDQMDNAKRMETKGAGVTLNVLEMTSEDLENALKAVINDKSYKENIMRLSSLHKDRPVEPLDLAVFWVEFVMRHKGAPHLRPAAHDLTWYQYHSLDVIGFLLAVVLTVAFITFKCCAYGYRKCLGKKGRVKKAHKSKTH
partner: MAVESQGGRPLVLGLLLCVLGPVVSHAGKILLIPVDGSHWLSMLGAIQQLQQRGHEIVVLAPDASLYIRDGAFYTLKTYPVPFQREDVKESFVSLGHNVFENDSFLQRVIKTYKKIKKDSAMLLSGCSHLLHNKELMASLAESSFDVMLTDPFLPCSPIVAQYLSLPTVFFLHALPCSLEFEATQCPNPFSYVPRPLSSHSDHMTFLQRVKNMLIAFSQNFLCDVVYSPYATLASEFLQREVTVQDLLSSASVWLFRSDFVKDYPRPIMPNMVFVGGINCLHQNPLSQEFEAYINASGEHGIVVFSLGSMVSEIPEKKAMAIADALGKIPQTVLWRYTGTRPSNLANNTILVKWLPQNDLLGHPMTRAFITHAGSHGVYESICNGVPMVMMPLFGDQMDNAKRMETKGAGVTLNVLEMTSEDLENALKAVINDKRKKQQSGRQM
B2: UDP-glucuronosyltransferase 1A9 (Homo sapiens), O60656-1 (parent)
chain: B1 chain
partner: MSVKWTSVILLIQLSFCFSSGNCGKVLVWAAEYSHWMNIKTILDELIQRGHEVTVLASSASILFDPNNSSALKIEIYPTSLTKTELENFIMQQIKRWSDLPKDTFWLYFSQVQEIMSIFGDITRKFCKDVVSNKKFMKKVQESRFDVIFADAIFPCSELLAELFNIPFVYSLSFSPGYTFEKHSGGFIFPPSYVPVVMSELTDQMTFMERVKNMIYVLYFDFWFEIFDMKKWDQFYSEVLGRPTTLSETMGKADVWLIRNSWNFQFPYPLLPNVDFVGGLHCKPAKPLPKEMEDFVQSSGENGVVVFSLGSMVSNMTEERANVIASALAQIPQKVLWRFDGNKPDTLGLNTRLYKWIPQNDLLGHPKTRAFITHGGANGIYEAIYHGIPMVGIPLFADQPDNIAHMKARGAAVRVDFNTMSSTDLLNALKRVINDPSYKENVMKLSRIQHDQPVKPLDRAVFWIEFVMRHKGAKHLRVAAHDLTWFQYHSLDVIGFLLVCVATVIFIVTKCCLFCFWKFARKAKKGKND
B3: UDP-glucuronosyltransferase 2B7 (Homo sapiens), P16662 (parent)
chain: B2 partner
partner: B1 partner
B4: UDP-glucuronosyltransferase 2B7 (Homo sapiens), P16662 (parent)
chain: B2 partner
partner: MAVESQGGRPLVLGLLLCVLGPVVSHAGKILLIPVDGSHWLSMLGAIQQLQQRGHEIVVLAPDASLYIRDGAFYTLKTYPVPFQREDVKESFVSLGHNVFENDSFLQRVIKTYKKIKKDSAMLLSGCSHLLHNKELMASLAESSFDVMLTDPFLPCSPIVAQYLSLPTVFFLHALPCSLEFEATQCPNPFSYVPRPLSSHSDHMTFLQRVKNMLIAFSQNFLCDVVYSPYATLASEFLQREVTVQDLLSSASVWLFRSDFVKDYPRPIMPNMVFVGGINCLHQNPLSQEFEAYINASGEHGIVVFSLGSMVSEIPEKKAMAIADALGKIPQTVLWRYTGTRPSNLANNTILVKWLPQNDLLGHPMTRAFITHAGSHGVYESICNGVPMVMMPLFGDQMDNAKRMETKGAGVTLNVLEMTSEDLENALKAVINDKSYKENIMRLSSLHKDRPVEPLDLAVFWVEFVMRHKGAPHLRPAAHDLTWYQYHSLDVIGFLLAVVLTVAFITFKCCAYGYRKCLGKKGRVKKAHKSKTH
B5: UDP-glucuronosyltransferase 1A9 (Homo sapiens), O60656-1 (parent)
chain: B1 chain
partner: B4 partner
B6: UDP-glucuronosyltransferase 2B7 (Homo sapiens), P16662 (parent)
chain: B2 partner
partner: B1 chain

The variants in one test derive from B1. As to conditions: with UGT1A1, P22309-2.
For the variant M33T, the “effect of a mutation on the interaction” value is listed as “with no effect”. D256N: the “effect of a mutation on the interaction” value is on record as “with no effect”. For C3Y, the “effect of a mutation on the interaction” value was “with no effect”.

The variants in another test derive from B2. As to conditions: with ud2b7_human UGT2B7, P16662.
On to C3Y, for which the “effect of a mutation on the interaction” value is “with no effect”. Consider M33T, for which the “effect of a mutation on the interaction” value was “with no effect”. For the variant D256N, the “effect of a mutation on the interaction” value is given as “with no effect”.

The variants in another test derive from B3. As to conditions: with UGT1A1, P22309-2.
In the case of D398N, the “effect of a mutation on the interaction” value was “disrupting interaction strength”. With A71S, the “effect of a mutation on the interaction” value is “with no effect”.

The variants in another test derive from B4. As to conditions: with UGT1A1, P22309-1.
In the case of D398N, the “effect of a mutation on the interaction” value is “with no effect”. Regarding A71S, the “effect of a mutation on the interaction” value is on record as “with no effect”.

In a further test the parent is B5. As to conditions: with UGT1A1, P22309-1.
As to D256N, the “effect of a mutation on the interaction” value is reported as “with no effect”. Consider M33T, for which the “effect of a mutation on the interaction” value was “with no effect”.

For the variant C3Y, the “effect of a mutation on the interaction” value is “with no effect”.

Another test covers variants of B6. As to conditions: with UGT1A9, O60656-1.
For D398N, the “effect of a mutation on the interaction” value is listed as “with no effect”. Consider A71S, for which the “effect of a mutation on the interaction” value is reported as “with no effect”.

The values above are taken from IntAct's records for PubMed 27857056.
